Data set [1] in a line: Appearance of solution upon dilution of peptide in assay buffer (solubility). The data set is classed as physicochemical. As to conditions: 10 mM DMSO stock diluted in assay buffer. The procedure: The cleavage sites ^193Arg↓Ala^194 and ^195Glu↓Ala^196 were chosen to design the FRET substrate ATS7FP0 (Table 1). This peptide covers residues Ala^188-Ala^198 in LTBP4S and contains a FAM/TAMRA fluorophore/quencher pair. The quencher is covalently linked to the ε amino group of an extra C-terminal lysine residue. Stock solutions were routinely prepared at 10 mM in DMSO and stored at −80 °C. […] This was most likely due to the high content in hydrophobic amino acids of this peptide, which added to the hydrophobicity of the fluorophore/quencher pair. Nevertheless, ATS7FP0 generated fluorescence upon cleavage by ADAMTS-7 (Figure 2(A)). With the aim to improve both solubility and cleavage rate by ADAMTS-7, seven additional peptides were designed using the sequence of ATS7FP0 as a starting point. The N-terminal alanine residue present in ATS7FP0 was removed to generate peptide ATS7FP7 with a reduced aliphatic index (Table 1). […] To assess the effect of a P4′ proline residue on the cleavage rate, peptide ATS7FP7 was modified to generate ATS7FP8. […] Since we also determined that ADAMTS-7 prefers arginine in P1 (Figure 1(D)), we mutated one alanine residue in the parental sequence into arginine with the aim to improve both cleavage rate and hydrophilicity, thus generating peptide ATS7FP3. […]

Data set [2] deals with ADAMTS7-T8 (recombinant human ADAMTS-7 construct lacking the C-terminal PLAC domain) (human) (UniProt Q9UKP4).
For data set [3], the target named is T1, ADAMTS-7 (Homo sapiens, UniProt Q9UKP4).
T1 construct: the recombinant construct ADAMTS7-T8, which lacks the C-terminal PLAC domain; made in house
T1 sequence (Q9UKP4 237-1631 limits assumed): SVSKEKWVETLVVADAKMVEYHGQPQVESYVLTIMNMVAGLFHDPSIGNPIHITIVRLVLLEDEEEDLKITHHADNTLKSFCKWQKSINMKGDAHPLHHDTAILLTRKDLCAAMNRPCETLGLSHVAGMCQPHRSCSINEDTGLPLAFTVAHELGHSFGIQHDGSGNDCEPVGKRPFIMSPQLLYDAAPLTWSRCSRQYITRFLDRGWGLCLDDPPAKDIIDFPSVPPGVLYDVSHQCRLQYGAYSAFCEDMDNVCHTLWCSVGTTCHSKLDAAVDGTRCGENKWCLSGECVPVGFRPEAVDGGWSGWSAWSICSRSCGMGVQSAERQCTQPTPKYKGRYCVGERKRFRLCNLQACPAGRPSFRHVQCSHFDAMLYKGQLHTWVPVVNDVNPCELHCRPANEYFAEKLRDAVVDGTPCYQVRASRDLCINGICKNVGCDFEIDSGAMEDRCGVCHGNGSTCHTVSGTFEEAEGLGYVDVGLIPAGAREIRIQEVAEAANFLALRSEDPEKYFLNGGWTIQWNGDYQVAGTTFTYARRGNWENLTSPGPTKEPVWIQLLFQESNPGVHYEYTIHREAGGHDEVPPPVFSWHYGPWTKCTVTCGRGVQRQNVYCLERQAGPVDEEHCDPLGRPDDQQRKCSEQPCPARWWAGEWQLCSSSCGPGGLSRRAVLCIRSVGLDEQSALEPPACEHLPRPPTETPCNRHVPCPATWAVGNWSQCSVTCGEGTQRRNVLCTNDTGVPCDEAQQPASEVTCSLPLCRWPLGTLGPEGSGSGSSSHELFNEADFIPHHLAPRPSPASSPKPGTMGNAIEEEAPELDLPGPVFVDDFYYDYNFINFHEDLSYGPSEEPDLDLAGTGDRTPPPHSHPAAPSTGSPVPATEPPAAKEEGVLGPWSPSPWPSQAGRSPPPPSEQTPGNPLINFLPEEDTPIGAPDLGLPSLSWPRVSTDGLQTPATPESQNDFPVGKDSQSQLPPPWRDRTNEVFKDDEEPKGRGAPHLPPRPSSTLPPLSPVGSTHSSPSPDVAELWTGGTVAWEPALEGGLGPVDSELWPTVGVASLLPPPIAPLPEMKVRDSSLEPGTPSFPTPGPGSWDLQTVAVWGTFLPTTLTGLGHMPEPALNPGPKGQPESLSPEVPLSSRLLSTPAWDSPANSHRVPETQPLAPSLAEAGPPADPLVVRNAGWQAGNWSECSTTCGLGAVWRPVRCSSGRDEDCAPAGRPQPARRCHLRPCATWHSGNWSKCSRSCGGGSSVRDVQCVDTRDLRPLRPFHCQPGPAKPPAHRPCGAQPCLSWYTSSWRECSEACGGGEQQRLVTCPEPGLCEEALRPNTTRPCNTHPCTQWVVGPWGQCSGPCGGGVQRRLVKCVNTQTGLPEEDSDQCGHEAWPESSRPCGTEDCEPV
Nature of the data set: Inhibition of ADAMTS-7 cleavage of FRET substrate ATS7FP7. The data set is classed as biochemical. The protocol:
All enzyme assays were conducted in TNC-B buffer (50 mM Tris- HCl, pH 7.5, 150 mM NaCl, 10 mM CaCl2, and 0.02% NaN3) at 37 °C in 384 well plates (Cat. No: 784900, Greiner Bio-One, Austria). To avoid the formation of inhibitor or peptide aggregates, the detergent Brij-35 (0.05%) was added to TNC-B[13]. For inhibition studies, stock solutions of chemical compounds were prepared in dimethyl sulfoxide (DMSO) (10 mM). […] Blank samples were prepared using buffer only and the rate of cleavage for blank reactions was subtracted from the rates measured in the presence of enzyme. Upon addition of the indicated ADAMTS-7 FRET substrates (40 µM), the fluorescence was measured immediately using a FLUOstar Omega microplate reader (BMG Labtech, Germany) with an excitation filter wavelength of 485 nm and an emission filter wavelength of 520 nm.

The target in data set [4] is T1, ADAMTS-7. The following applies: read-out: Ki app for inhibition of cleavage of LTBP4; cited from earlier work.
The target in data set [5] is ADAMTS7-T8 (recombinant human ADAMTS-7 construct lacking the C-terminal PLAC domain) (human) (UniProt Q9UKP4). Nature of the data set: enzyme inhibition assay (cleavage of a FRET peptide); ADAMTS-7 (5 nM) pre-incubated 1 h at 37 °C with TIMP-4, then ATS7FP7 (40 µM) added; TNC-B buffer (50 mM Tris-HCl pH 7.5, 150 mM NaCl, 10 mM CaCl2, 0.02% NaN3) with 0.05% Brij-35; 384 well plates; apparent Ki from the Morrison equation for tight binding inhibitors.

Like-named read-outs stand apart in the source and are kept apart here.

Chain of ADAMTS7-T8 (recombinant human ADAMTS-7 construct lacking the C-terminal PLAC domain) (human) (Q9UKP4 28-1686): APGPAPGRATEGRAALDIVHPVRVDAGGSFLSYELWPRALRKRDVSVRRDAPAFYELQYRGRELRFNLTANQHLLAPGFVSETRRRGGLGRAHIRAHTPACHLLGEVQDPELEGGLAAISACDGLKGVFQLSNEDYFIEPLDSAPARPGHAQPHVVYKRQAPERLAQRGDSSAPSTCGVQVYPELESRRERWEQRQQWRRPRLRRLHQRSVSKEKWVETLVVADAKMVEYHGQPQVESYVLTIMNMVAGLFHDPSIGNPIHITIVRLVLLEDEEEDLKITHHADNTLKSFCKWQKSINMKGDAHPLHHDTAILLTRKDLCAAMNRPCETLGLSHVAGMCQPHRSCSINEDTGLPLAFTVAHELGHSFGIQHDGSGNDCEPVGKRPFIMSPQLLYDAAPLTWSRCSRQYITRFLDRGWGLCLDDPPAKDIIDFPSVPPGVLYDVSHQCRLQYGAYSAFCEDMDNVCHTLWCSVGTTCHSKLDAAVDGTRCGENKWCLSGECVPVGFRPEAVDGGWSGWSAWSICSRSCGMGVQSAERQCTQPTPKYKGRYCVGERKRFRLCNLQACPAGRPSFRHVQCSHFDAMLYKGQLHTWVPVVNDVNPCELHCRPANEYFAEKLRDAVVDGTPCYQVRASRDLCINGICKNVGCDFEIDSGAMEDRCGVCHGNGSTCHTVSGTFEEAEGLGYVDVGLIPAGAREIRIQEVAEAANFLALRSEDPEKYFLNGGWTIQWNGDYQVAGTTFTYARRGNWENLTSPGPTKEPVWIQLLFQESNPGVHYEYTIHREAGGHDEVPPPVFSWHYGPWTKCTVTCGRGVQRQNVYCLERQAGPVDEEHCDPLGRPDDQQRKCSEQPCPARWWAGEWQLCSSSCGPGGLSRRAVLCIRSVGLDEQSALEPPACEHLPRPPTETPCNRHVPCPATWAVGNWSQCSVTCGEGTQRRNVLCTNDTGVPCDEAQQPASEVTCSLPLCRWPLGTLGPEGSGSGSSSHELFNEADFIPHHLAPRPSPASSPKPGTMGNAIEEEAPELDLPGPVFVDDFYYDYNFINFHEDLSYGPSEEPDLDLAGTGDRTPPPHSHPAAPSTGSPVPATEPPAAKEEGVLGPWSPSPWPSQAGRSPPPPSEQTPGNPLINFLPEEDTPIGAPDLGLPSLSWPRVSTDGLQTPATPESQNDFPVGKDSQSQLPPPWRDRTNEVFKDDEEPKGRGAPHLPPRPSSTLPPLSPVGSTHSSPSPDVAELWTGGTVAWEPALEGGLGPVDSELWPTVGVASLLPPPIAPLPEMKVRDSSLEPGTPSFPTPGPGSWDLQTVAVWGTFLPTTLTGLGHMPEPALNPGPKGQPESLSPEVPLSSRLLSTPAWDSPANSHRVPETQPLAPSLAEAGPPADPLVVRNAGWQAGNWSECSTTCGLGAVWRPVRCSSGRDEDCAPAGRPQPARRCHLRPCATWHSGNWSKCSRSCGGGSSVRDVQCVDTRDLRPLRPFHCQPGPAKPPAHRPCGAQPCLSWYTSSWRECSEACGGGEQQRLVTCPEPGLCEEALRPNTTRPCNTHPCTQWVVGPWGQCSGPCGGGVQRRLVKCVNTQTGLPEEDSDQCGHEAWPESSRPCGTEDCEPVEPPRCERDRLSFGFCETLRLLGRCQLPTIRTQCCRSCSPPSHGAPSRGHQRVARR

Take “Ala-Glu-Ala-Ala-Ala-Arg↓Ala-Glu↓Ala-Ala-Ala-Lys [ATS7FP0]”: the “appearance of solution upon dilution in the assay buffer (solubility)” value in data set [1] is on record as “non-homogenous”.

B1: Recombinant human tissue inhibitor of metalloproteinase (TIMP)-4 (natural protein)
chain: CSCAPAHPQQHICHSALVIRAKISSEKVVPASADPADTEKMLRYEIKQIKMFKGFEKVKDVQYIYTPFDSSLCGVKLEANSQKQYLLTGQVLSDGKVFIHLCNYIEPWEDLSLVQRESLNHHYHLNCGCQITTCYTVPCTISAPNECLWTDWLLERKLYGYQAQHYVCMKHVDGTCSWYRGHLPLRKEFVDIVQP
As a reminder, the IC50 is the point on the concentration scale where inhibition reaches its midpoint. Low readings indicate greater potency in that assay, high ones weaker potency in that assay. As to B1, the IC50 of inhibition of ADAMTS-7 cleavage of the FRET peptide substrate ATS7FP7 in data set [2] stood at 18 nM. The Ki is 3.2 ± 1 nM with ADAMTS-7 [3] (5 nM ADAMTS-7, Morrison equation for tight binding inhibitors, read-out: Ki app (ATS7FP7 substrate)); 13 nM with ADAMTS-7 [4]; 3.2 nM in data set [5]. The molecule further showed an IC50 in the data set with ADAMTS-7 [3] (ATS7FP7 40 μM, 1 h preincubation, 37 °C) of 18 ± 6 nM.

Values taken from publication PMC8494430, “Development of a fluorogenic ADAMTS-7 substrate” (Journal of Enzyme Inhibition and Medicinal Chemistry, 2021).
